Tests used:
[1] = molecular target: SpyCas9 (Streptococcus pyogenes)
[2] = molecular target: SpyCas9 (Streptococcus pyogenes); remark: listed apart in the source

Row | repression of the target mutation at AAVS1 (T7E1 assay, ssODN template) against SpyCas9 alone [2] [%] | Substance | mutagenesis rate by NHEJ (T7E1 assay) with the AcrIIA4-Cdt1-2A-Cas9 vector; SpyCas9 vector alone 8.0% [1] [%] | mutagenesis rate by NHEJ (T7E1 assay) with the AcrIIA4-2A-Cas9 vector; SpyCas9 vector alone 8.0% [1] [%]
1 | 79.1 | AcrIIA4-hCdt1(30–120) (from UniProt Q9H211 30-120) | 3.7 | –
2 | – | AcrIIA4 (natural protein) | – | 0.9

Reference: paper PMC7584632
